Paper doi:10.1101/2024.10.30.621104 (bioRxiv, 2024)

Target: the molecule itself
Assay: single-molecule photobleaching step counting

B1: HSV-1 origin binding protein UL9 labelled at its C-terminus with Atto647N through a ybbR-tag (enzyme, Herpes simplex virus type 1, UniProt P10193 1-851, looked up)
chain: MPFVGGAESGDPLGAGRPIGDDECEQYTSSVSLARMLYGGDLAEWVPRVHPKTTIERQQHGPVTFPNASAPTARCVTVVRAPMGSGKTTALIRWLREAIHSPDTSVLVVSCRRSFTQTLATRFAESGLVDFVTYFSSTNYIMNDRPFHRLIVQVESLHRVGPNLLNNYDVLVLDEVMSTLGQLYSPTMQQLGRVDALMLRLLRICPRIIAMDATANAQLVDFLCGLRGEKNVHVVVGEYAMPGFSARRCLFLPRLGTELLQAALRPPGPPSGPSPDASPEARGATFFGELEARLGGGDNICIFSSTVSFAEIVARFCRQFTDRVLLLHSLTPLGDVTTWGQYRVVIYTTVVTVGLSFDPLHFDGMFAYVKPMNYGPDMVSVYQSLGRVRTLRKGELLIYMDGSGARSEPVFTPMLLNHVVSSCGQWPAQFSQVTNLLCRRFKGRCDASACDTSLGRGSRIYNKFRYKHYFERCTLACLSDSLNILHMLLTLNCIRVRFWGHDDTLTPKDFCLFLRGVHFDALRAQRDLRELRCRDPEASLPAQAAETEEVGLFVEKYLRSDVAPAEIVALMRNLNSLMGRTRFIYLALLEACLRVPMATRSSAIFRRIYDHYATGVIPTINVTGELELVALPPTLNVTPVWELLCLCSTMAARLHWDSAAGGSGRTFGPDDVLDLLTPHYDRYMQLVFELGHCNVTDGLLLSEEAVKRVADALSGCPPRGSVSETDHAVALFKIIWGELFGVQMAKSTQTFPGAGRVKNLTKQTIVGLLDAHHIDHSACRTHRQLYALLMAHKREFAGARFKLRVPAWGRCLRTHSSSANPNADIILEAALSELPTEAWPMMQGAVNFSTL
modifications: Atto647N fluorophore on the C-terminus through a ybbR-tag
- stoichiometry N: 2
